Results on 1 molecule are retold here after US20040258747A1 (G GASLINI CHILDREN S HOSPITAL, published 2004).

Ends that are not written are not given here.

The target in the assay is T1, CD13 (aminopeptidase N) as expressed on THP-1 cells (human acute monocytic leukemia) (human, UniProt P15144 2-967).
T1 construct: whole, on cells; The CD13 form on THP-1 is recognised by WM15 but not by the NGR liposomes
The assay is described as follows: FACS of doxorubicin fluorescence, THP-1 cells 1 h at 4 C.

T1 sequence (P15144 2-967): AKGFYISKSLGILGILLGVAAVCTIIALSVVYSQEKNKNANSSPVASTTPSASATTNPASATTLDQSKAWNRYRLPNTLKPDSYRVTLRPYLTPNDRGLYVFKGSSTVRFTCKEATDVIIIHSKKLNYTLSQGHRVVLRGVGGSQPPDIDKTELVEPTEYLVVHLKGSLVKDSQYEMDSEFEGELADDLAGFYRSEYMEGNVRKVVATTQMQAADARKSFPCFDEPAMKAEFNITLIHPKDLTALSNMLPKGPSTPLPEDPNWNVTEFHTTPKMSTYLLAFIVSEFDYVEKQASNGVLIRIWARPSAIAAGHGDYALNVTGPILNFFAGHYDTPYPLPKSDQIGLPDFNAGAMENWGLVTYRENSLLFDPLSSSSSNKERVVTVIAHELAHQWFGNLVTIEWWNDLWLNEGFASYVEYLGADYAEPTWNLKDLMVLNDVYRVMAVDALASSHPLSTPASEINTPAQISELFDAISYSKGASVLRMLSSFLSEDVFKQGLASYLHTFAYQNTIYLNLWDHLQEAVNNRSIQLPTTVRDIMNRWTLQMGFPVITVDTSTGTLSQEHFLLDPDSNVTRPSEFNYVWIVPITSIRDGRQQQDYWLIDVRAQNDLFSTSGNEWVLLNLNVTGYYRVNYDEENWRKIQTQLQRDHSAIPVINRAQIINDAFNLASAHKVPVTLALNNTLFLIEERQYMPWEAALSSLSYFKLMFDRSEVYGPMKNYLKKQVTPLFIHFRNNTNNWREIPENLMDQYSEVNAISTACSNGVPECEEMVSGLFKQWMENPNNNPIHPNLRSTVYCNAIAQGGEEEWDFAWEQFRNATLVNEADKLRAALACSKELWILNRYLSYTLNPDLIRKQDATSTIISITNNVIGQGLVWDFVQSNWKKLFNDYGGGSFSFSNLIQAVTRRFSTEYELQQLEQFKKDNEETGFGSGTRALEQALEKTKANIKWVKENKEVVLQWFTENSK

B1: ARA-targeted (sham-targeted) sterically stabilized liposomal doxorubicin (ARA-SL[DXR]): control peptide GARAGGVRSSSRTPSDKYC coupled to the liposome surface (peptide)
peptide: GARAGGVRSSSRTPSDKYC(PEG2000‑DSPE‑MAL (liposome))
modifications: not fully specified; also: on surface of doxorubicin-loaded sterically stabilized liposome
notes: Control formulation; Same liposome as NGR-SL[DXR], with NGR replaced by ARA in the peptide; also called mismatched peptide ARA
With B1, the binding result is listed as “no binding”.
